Laboratory results from article PMC2196183.
Where “and” joins values, the source holds several entries; their conditions need not be identical. Identical values can stand only once.

Molecular target: GSK3 binding protein (GBP) on beads (Xenopus)
Experiment: pull-down

fold increase in binding with 1 μM CK1ε against buffer- or GSK3-treated extracts: 4 fold and 5 fold
B1: dishevelled (dsh), radiolabeled (natural protein)
chain: MAETKVIYHLDEEETPYLVKVPVPATDIRLRDFKAALGRGHAKYFFKAMDQDFGVVKEEISDDNAKLPCFNDRVVSWLASSEGSQPDSAPPAPATEVRPEPPPPVPPPIPPPPAERTSGIGDSRPPSFHPNVSGSTEQLDQDNESVISMRRDRVRRRESSEQAGVGRGVNGRTERHLSGYESSSTLLTSEIETSICDSEEDDTMSRFSSSTEQSSASRLLKRHRRRRKQRPPRLERTSSFSSVTDSTMSLNIITVTLNMEKYNFLGISIVGQSNERGDGGIYIGSIMKGGAVAADGRIEPGDMLLQVNDINFENMSNDDAVRVLRDIVHKPGPIVLTVAKCWDPSPQGYFTLPRNEPIHPIDPAAWVSHSAALSGSFPVYPGSASMSSMTSSTSVTETELSHALPPVSLFSLSVHTDLASVVKVMASPESGLEVRDRMWLKITIPNAFLGSDVVDWLYHHVEGFQDRREARKFASNLLKAGFIRHTVNKITFSEQCYYIFGDLTGCENYMTNLSLNDNDGSSGASDQDTLAPLPLPGASPWPLLPTFSYQYQAPHPYSTQPPAYHELSSYSYGMGSAGSQHSEGSRSSGSNRSDGGRGMQKDDRSGVAGVGGGDSKSGSGSESEYSTRSSIRRVGGGEAGPPSERSTSSRLPPHHPPSVHSYAAPGVPLSYNPMMLMMMPPPPLPPPGVCPPNSSVPPGAPPLVRDLASVPPELTATRQSFHMAMGNPSEFFVDVM
modifications: [35S]methionine label
